± gives the uncertainty stated by the source.

The data set is described as follows: amyloid nucleation score (Sup35N fusion, yeast selection) (log enrichment); library NNK2; higher = more nucleation; inactive = no reads after selection. A digest of the protocol:
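In psi-negative yeast, Sup35N fusions carrying peptides of 20 random codons were induced with 100 μM copper sulfate for 24 hours. The cells then grew 7 days at 30°C on medium lacking adenine and uracil, and plasmid inserts from input and output were Illumina-sequenced, excluding sequences with under 100 input reads. Nucleation score is the DiMSum log enrichment of output over input reads, centred on the mode score of non-aggregating sequences.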
For IFLQNTSSEWLLSARDRLRY, the amyloid nucleation score came to 0.157 ± 1.

Take ENKGGCFARVDVGCVGSGMR: the amyloid nucleation score amounted to 0.014 ± 0.42.

As for GFMFVFWKFKHGLMGPCSRD, the amyloid nucleation score was found to be 0.684 ± 0.23.

WVASSSKQRTHLCSGVKWSV returned an amyloid nucleation score of 0.539 ± 0.56.

Consider AVIDIIKRTSCTCDESCCIR, for which the amyloid nucleation score was found to be 0.415 ± 0.31.

The substance ISTMSGPFVSRLWYSAYNTA had an amyloid nucleation score of -0.345 ± 0.64.

On to SVYLVG, for which the amyloid nucleation score was -0.271 ± 0.65.

The substance VYIILSFSIGMGEFNMISGG came in with an amyloid nucleation score of -0.587 ± 0.79.

NRNPYILGYLRPPEVDYWWW yielded an amyloid nucleation score of -0.627 ± 1.1.

The substance QIYCVSPLSRHWYFARYGVT came in with an amyloid nucleation score of 0.78 ± 0.32.

FYKNAP returned an amyloid nucleation score of -1.06 ± 1.1.

Substance KVANRYIK had an amyloid nucleation score of 0.136 ± 0.32.

In turn, IIFVVVASQKVHWFVRVDGD gave an amyloid nucleation score of -0.658 ± 1.

For VSLLNGYGAHSDMSAVGRRR, the amyloid nucleation score amounted to 0.649 ± 0.47.

WIITNCSLFFSVALS: the amyloid nucleation score turned out to be 6.79 ± 0.085.

Regarding LRMHFMMWTRRVNLVRHGNN, the amyloid nucleation score entry was “inactive”.

TWCMRMNCSAFRKGVVNYSR yielded an amyloid nucleation score of 2.91 ± 0.078.

SISHQRMWKGCADEII came in with an amyloid nucleation score of -0.242 ± 1.1.

LCNGLFTFMEASSGRHAPQF gave an amyloid nucleation score of 0.138 ± 0.76.

For the substance SWWIGASEVVHGSKSEGI, the amyloid nucleation score is -0.357 ± 1.1.

Turning to SVCYGSSIWN, the amyloid nucleation score was -0.083 ± 0.39.

For the substance TYIFLSRIGQFSKLQYVMRL, the amyloid nucleation score amounted to 5.37 ± 0.056.

YGLAC: the amyloid nucleation score came to 2.44 ± 0.072.

As to INVSVFVVFRNRQRLKC, the amyloid nucleation score came to 7.363 ± 0.058.

LHIRVLSQVRLCDDWRASAS showed an amyloid nucleation score of -0.016 ± 0.33.

Substance LDCLRFTDFILIISKFVPVL came in with an amyloid nucleation score of 0.026 ± 1.1.

For NDIMYSVSSYCWWSFRSSVF, the amyloid nucleation score came to 2.06 ± 0.15.

With AAWNRPHMERRFSYEGYYIV, the amyloid nucleation score is -0.508 ± 0.63.

The substance LNRDFMVHLSCGTWPSARKW showed an amyloid nucleation score of 0.067 ± 0.5.

NSFVAIKCIV displayed an amyloid nucleation score of -0.023 ± 0.33.

For the substance CLPGSH, the amyloid nucleation score was found to be 0.535 ± 0.74.

ECDYRTLSLNMVLNYCRKGG showed an amyloid nucleation score of 5.955 ± 0.046.

WVACWTSLLYQVIVIIRGLN returned an amyloid nucleation score of 0.975 ± 0.38.

For the substance TQSWDEWSYGNITGSTSYRL, the amyloid nucleation score came out at 0.25 ± 0.23.

Consider CNYVQIMLS, for which the amyloid nucleation score was 2.81 ± 0.056.

Substance SFGCINTCFCMCSCFVREMD returned an amyloid nucleation score of 1.5 ± 0.14.

Substance CWRVNRFYVQSSYMGFVWSV came in with an amyloid nucleation score of -0.73 ± 1.1.

The substance DQALGGEMWWL yielded an amyloid nucleation score of -0.14 ± 0.45.

Take SKSVWMRLVS: the amyloid nucleation score was -0.58 ± 0.24.

Substance DSSIDRWF displayed an amyloid nucleation score of 1.15 ± 0.22.

In turn, PQAVLKGTQGHNLTKNLTWA gave an amyloid nucleation score of -0.774 ± 0.49.

Turning to MSYGNAYNTPKCDKHSVIPY, the amyloid nucleation score worked out at 0.738 ± 0.37.

For the substance IRKALNASVLKLT, the amyloid nucleation score was 1.1 ± 0.36.

In the case of YILNMFKETLDVLVLKRNCF, the amyloid nucleation score is -1.18 ± 1.1.

The substance LTFGCG showed an amyloid nucleation score of -0.903 ± 0.36.

GAGWFNDFVHLPWHLEVSNY came in with an amyloid nucleation score of -1.17 ± 1.1.

On to FELLPTR, for which the amyloid nucleation score is 3.3 ± 0.079.

The substance YFWFYTV displayed an amyloid nucleation score of -0.691 ± 0.34.

IFYHHLSWTEFRCGRTFLSV returned an amyloid nucleation score of 0.196 ± 0.42.

As to ISPLIG, the amyloid nucleation score worked out at 0.33 ± 0.49.

In turn, GMSYGESWIGTNLAGRVRAL returned an amyloid nucleation score of 1.29 ± 0.31.

Substance RTVLFAGCAVSNEMFCEKLV returned an amyloid nucleation score of 3.68 ± 0.077.

FWYCTHTTSYDGTLNSEWVT: the amyloid nucleation score worked out at 0.307 ± 0.26.

VVGTPCL displayed an amyloid nucleation score of 0.542 ± 0.41.

Consider LCSLDSMPHSYITCSAKRLI, for which the amyloid nucleation score is -0.443 ± 0.3.

With CLIVFIADTAAYIKVSMSSV, the amyloid nucleation score entry is “inactive”.

EVFACTSG showed an amyloid nucleation score of 1.56 ± 0.44.

Regarding IIGINVWM, the amyloid nucleation score is 5.443 ± 0.05.

In turn, ALWGF showed an amyloid nucleation score of -0.235 ± 0.38.

For the substance FKLGGSNVDDFFVFNWITVF, the amyloid nucleation score was -0.596 ± 0.76.

For the substance WSMKGFYL, the amyloid nucleation score entry is “inactive”.

Regarding VIEYRVFRKYPCNCFLRGLS, the amyloid nucleation score was -0.865 ± 0.39.

Consider WRAKAFSEKFIERRWDVGMN, for which the amyloid nucleation score is -1.18 ± 0.62.

VYIIVFRIWLPLHFWSSTLM came in with an amyloid nucleation score of -0.354 ± 0.56.

In the case of KSTVIMSDTFLR, the amyloid nucleation score was -0.271 ± 1.

The substance VVDTMNFNYCVVCSLRSVWQ registered an amyloid nucleation score of 10.5 ± 0.058.

The substance VVDTGFQRTGKSWIINDRGM displayed an amyloid nucleation score of 0.253 ± 0.14.

Consider FYSFGGNGDYSPKSGHWS, for which the amyloid nucleation score result was “inactive”.

Turning to TSYYLDL, the amyloid nucleation score was -1.31 ± 0.75.

Take QNESHIH: the amyloid nucleation score was determined as 6.31 ± 0.079.

Take YALDL: the amyloid nucleation score is 0.08 ± 0.55.

Turning to SGIWFQQDMMN, the amyloid nucleation score was -0.258 ± 0.55.

Turning to SWVNMIMNMSLHTDIRYMLY, the amyloid nucleation score was found to be 1.66 ± 0.25.

As to FMSRTWLAYFTCKMLHGLLR, the amyloid nucleation score stood at 0.863 ± 0.41.

For KCYQSFNNADALM, the amyloid nucleation score is -0.627 ± 0.33.

VYKYNISFLEPKHESQAWNK came in with an amyloid nucleation score of 0.042 ± 0.63.

For the substance NSIGV, the amyloid nucleation score was -1.02 ± 0.55.

Consider RSRVLILCDEGRNCVL, for which the amyloid nucleation score is -0.533 ± 0.42.

VVHQVSVGHCWVSR yielded an amyloid nucleation score of 0.683 ± 0.21.

For FAHAIVSHDWDQRVRGWSGC, the amyloid nucleation score came to 0.836 ± 0.41.

Regarding VSAGWSTST, the amyloid nucleation score came to 3 ± 0.09.

LDSSMSTGNLRLCFFESICS came in with an amyloid nucleation score of 0.232 ± 0.56.

Take KHMNAYCNVTYQIDFRCIIS: the amyloid nucleation score entry is “inactive”.

As for YIWLDAYFTESGILYYLMIR, the amyloid nucleation score result is “inactive”.

Consider VTDYYYLCKFKSRVP, for which the amyloid nucleation score is -0.799 ± 0.78.

GIKYRSQCGCASDVCIKCRS showed an amyloid nucleation score of -0.054 ± 1.1.

YAFRSYMKFIYFCSDFFSDR displayed an amyloid nucleation score of -2.32 ± 0.75.

RNSCFVLSFMGWFVHYHFRF: the amyloid nucleation score was -0.317 ± 0.79.

In turn, KRVGTYEVKI returned an amyloid nucleation score of -0.253 ± 0.55.

Regarding CSESFGCRTPPSLNMLVCN, the amyloid nucleation score was -0.729 ± 1.1.

Consider TGCMSFSWPWTLLVSPIQLS, for which the amyloid nucleation score was -0.651 ± 0.48.

LRSLINCYAKVICRTYRFVG returned an amyloid nucleation score of -0.885 ± 0.61.

As for RDIFILYD, the amyloid nucleation score entry is “inactive”.

For the substance TAGLYDKTLFYSFYLRYPKF, the amyloid nucleation score result is “inactive”.

In turn, LGSLDSVFNSFHRAGS displayed an amyloid nucleation score of -0.518 ± 0.56.

Consider YAPGVLLSSMNDMAEYKGGI, for which the amyloid nucleation score is -0.14 ± 0.28.

Substance RVSESLPSTD gave an amyloid nucleation score of -0.219 ± 0.47.

WGSGNGLVGLHYLASLFERN returned an amyloid nucleation score of 0.847 ± 0.58.

As for RPYNPFPLCILRWRPELL, the amyloid nucleation score result was “inactive”.

The substance FLDKCVRSSIENYWV yielded an amyloid nucleation score of -0.074 ± 1.1.

In turn, YSGWFFCNFISLWV gave an amyloid nucleation score of 6.529 ± 0.057.

The substance ALYMDVRL came in with an amyloid nucleation score of 1.53 ± 0.19.

As to NRFAHNALVAL, the amyloid nucleation score turned out to be 4.08 ± 0.062.

For the substance NSVETLMNQRCWVCHTCCVK, the amyloid nucleation score was -0.472 ± 0.64.

In turn, KMKFKKENFC registered an amyloid nucleation score of -0.858 ± 1.

The values above are taken from the supplement of paper PMC12042874.
